From IntAct's records for PubMed 35266954

Key:
1433t_human YWHAQ = 1433t_human YWHAQ (UniProt P27348)
trim1_human MID2 = trim1_human MID2 (UniProt Q9UJV3)
Sequence of UniProt Q9UJV3 (Q9UJV3 whole entry): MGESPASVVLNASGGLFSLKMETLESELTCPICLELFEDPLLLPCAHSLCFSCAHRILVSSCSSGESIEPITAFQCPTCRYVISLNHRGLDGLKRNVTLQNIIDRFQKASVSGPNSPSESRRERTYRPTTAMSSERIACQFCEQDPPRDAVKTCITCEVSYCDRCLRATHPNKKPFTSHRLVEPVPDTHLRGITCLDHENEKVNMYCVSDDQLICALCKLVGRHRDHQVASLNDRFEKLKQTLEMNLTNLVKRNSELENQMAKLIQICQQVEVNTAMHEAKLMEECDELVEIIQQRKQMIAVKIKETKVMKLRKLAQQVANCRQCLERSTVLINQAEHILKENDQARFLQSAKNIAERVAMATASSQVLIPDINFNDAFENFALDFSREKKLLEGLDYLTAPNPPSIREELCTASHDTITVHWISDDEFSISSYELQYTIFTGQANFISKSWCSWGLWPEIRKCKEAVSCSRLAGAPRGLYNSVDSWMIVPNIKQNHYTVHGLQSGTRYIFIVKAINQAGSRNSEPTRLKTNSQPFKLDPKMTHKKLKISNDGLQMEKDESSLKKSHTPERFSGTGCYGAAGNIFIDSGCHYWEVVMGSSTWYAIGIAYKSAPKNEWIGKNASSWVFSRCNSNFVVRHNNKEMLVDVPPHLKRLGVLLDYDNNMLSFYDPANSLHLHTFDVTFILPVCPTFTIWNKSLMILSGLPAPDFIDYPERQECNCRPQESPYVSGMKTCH

Sequence of UniProt P27348 (P27348 whole entry): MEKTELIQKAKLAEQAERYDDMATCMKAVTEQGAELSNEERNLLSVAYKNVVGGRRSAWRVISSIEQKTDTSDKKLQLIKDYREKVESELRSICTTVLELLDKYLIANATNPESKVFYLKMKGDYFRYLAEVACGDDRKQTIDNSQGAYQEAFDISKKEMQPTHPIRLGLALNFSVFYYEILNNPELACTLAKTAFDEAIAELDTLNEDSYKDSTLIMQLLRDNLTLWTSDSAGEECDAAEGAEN

effect of a mutation on the interaction (1433t_human YWHAQ) | effect of a mutation on the interaction (trim1_human MID2) | Substance
disrupting interaction strength | – | Leucine-rich repeat serine/threonine-protein kinase 2 (Homo sapiens), Q5S007 R1441C
– | with no effect | Leucine-rich repeat serine/threonine-protein kinase 2 (Homo sapiens), Q5S007 G2019S
disrupting interaction strength | – | Leucine-rich repeat serine/threonine-protein kinase 2 (Homo sapiens), Q5S007 S910D;S935D
disrupting interaction strength | – | Leucine-rich repeat serine/threonine-protein kinase 2 (Homo sapiens), Q5S007 S910A;S935A
